{"source": "patent US20220025010A1", "about": "(ANTAG THERAPEUTICS, published 2022)", "binders": {"B1": {"name": "AT516 (peptide)", "peptide": "SGTFISDYSIAMDRIK([AEEA-AEEA-γGlu-C16 diacid])QQDFVNWLLAQR-NH2", "modifications": "N-terminus assumed", "SMILES": "CC[C@H](C)[C@H](NC(=O)[C@H](CO)NC(=O)[C@H](Cc1ccc(O)cc1)NC(=O)[C@H](CC(=O)O)NC(=O)[C@H](CO)NC(=O)[C@@H](NC(=O)[C@H](Cc1ccccc1)NC(=O)[C@@H](NC(=O)CNC(=O)[C@@H](N)CO)[C@@H](C)O)[C@@H](C)CC)C(=O)N[C@@H](C)C(=O)N[C@@H](CCSC)C(=O)N[C@@H](CC(=O)O)C(=O)N[C@@H](CCCNC(=N)N)C(=O)N[C@H](C(=O)N[C@@H](CCCCNC(=O)COCCOCCNC(=O)COCCOCCNC(=O)CC[C@H](NC(=O)CCCCCCCCCCCCCCC(=O)O)C(=O)O)C(=O)N[C@@H](CCC(N)=O)C(=O)N[C@@H](CCC(N)=O)C(=O)N[C@@H](CC(=O)O)C(=O)N[C@@H](Cc1ccccc1)C(=O)N[C@H](C(=O)N[C@@H](CC(N)=O)C(=O)N[C@@H](Cc1c[nH]c2ccccc12)C(=O)N[C@@H](CC(C)C)C(=O)N[C@@H](CC(C)C)C(=O)N[C@@H](C)C(=O)N[C@@H](CCC(N)=O)C(=O)N[C@@H](CCCNC(=N)N)C(N)=O)C(C)C)[C@@H](C)CC"}, "B2": {"name": "AT518 (peptide)", "peptide": "PGTFISDYSIAMDRIK([AEEA-AEEA-γGlu-C16 diacid])QQDFVNWLLAQR-NH2", "modifications": "N-terminus assumed", "SMILES": "CC[C@H](C)[C@H](NC(=O)[C@H](CO)NC(=O)[C@H](Cc1ccc(O)cc1)NC(=O)[C@H](CC(=O)O)NC(=O)[C@H](CO)NC(=O)[C@@H](NC(=O)[C@H](Cc1ccccc1)NC(=O)[C@@H](NC(=O)CNC(=O)[C@@H]1CCCN1)[C@@H](C)O)[C@@H](C)CC)C(=O)N[C@@H](C)C(=O)N[C@@H](CCSC)C(=O)N[C@@H](CC(=O)O)C(=O)N[C@@H](CCCNC(=N)N)C(=O)N[C@H](C(=O)N[C@@H](CCCCNC(=O)COCCOCCNC(=O)COCCOCCNC(=O)CC[C@H](NC(=O)CCCCCCCCCCCCCCC(=O)O)C(=O)O)C(=O)N[C@@H](CCC(N)=O)C(=O)N[C@@H](CCC(N)=O)C(=O)N[C@@H](CC(=O)O)C(=O)N[C@@H](Cc1ccccc1)C(=O)N[C@H](C(=O)N[C@@H](CC(N)=O)C(=O)N[C@@H](Cc1c[nH]c2ccccc12)C(=O)N[C@@H](CC(C)C)C(=O)N[C@@H](CC(C)C)C(=O)N[C@@H](C)C(=O)N[C@@H](CCC(N)=O)C(=O)N[C@@H](CCCNC(=N)N)C(N)=O)C(C)C)[C@@H](C)CC"}}, "target": "T1, human GIP receptor (human, UniProt P48546 22-466)", "T1 sequence (looked up)": "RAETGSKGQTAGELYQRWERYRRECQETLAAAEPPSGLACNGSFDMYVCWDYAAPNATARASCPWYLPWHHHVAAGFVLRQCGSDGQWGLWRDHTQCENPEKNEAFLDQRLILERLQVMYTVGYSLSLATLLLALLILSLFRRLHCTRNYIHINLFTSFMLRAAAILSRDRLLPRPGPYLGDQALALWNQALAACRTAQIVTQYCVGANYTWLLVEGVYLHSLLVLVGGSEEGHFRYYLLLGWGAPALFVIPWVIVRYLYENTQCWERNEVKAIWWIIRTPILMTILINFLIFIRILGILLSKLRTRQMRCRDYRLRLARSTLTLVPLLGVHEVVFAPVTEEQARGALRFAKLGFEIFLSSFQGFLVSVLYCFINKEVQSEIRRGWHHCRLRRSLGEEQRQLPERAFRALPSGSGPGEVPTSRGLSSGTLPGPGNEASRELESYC", "test": "cell-based or functional assay", "note": "*1 amine or outer side, *2 acyl side, *3 side chain or, on linkers, in order; H or OH if unused. Where no end group is shown, it is not given here. Side-chain parts run from the residue outwards. The star is where a group is joined. C16 diacid = O=C(O)CCCCCCCCCCCCCCC(=O)*; γGlu = O=C(O)[C@H](CCC(=O)[*:2])N[*:1]; AEEA = NCCOCCOCC(=O)O", "data": [{"binder": "B1", "values": [{"measurement": "CisBio cAMP agonism % Efficacy", "value": 0, "unit": "%"}, {"measurement": "CisBio cAMP antagonism % inhib", "value": 88, "unit": "%"}, {"measurement": "CisBio cAMP antagonism IC50", "value": 0.0271, "unit": "µM"}, {"measurement": "CisBio cAMP antagonism pIC50", "value": 7.6}, {"measurement": "DiscoveRx cAMP antagonism % inhib", "value": 100, "unit": "%"}, {"measurement": "DiscoveRx cAMP antagonism IC50", "value": 0.031, "unit": "µM"}, {"measurement": "DiscoveRx cAMP antagonism log IC50", "value": -7.5, "unit": "log M"}]}, {"binder": "EGTFISDYSIAMDRIK([AEEA-γGlu-C16 diacid])QQDFVNWLLAQR-NH2 (not fully specified (residue 1))", "note": "[AT373]", "values": [{"measurement": "CisBio cAMP agonism % Efficacy", "value": 0, "unit": "%"}, {"measurement": "CisBio cAMP antagonism % inhib", "value": 91, "unit": "%"}, {"measurement": "CisBio cAMP antagonism IC50", "value": 0.0126, "unit": "µM"}, {"measurement": "CisBio cAMP antagonism pIC50", "value": 7.9}, {"measurement": "DiscoveRx cAMP antagonism % inhib", "value": 94, "unit": "%"}, {"measurement": "DiscoveRx cAMP antagonism IC50", "value": 0.01, "unit": "µM"}, {"measurement": "DiscoveRx cAMP antagonism log IC50", "value": -8, "unit": "log M"}]}, {"binder": "B2", "values": [{"measurement": "CisBio cAMP agonism % Efficacy", "value": 0, "unit": "%"}, {"measurement": "CisBio cAMP antagonism % inhib", "value": 71, "unit": "%"}, {"measurement": "CisBio cAMP antagonism IC50", "value": 0.0858, "unit": "µM"}, {"measurement": "CisBio cAMP antagonism pIC50", "value": 7.1}, {"measurement": "DiscoveRx cAMP agonism Emax", "value": 5}, {"measurement": "DiscoveRx cAMP antagonism % inhib", "value": 100, "unit": "%"}, {"measurement": "DiscoveRx cAMP antagonism IC50", "value": 0.346, "unit": "µM"}, {"measurement": "DiscoveRx cAMP antagonism log IC50", "value": -6.5, "unit": "log M"}]}]}
